Assay results published in doi:10.1101/2025.11.10.687450, “ALC1 Finds a New Foothold on the Nucleosome’s Super-Groove” (bioRxiv, 2025).

Molecular target: T1, histone H4 (in the PARylated nucleosome) (UniProt P62799 1-103)
T1 construct: histone H4 as in the nucleosome m2; The H4 chain of m2, written on its own for the contact with ALC1's C-ATPase lobe; also called H4 tail
Experiment: cryo-EM structure; re-analysis of the public dataset EMPIAR-10739 in CryoSPARC: WT ALC1 with an enzymatically PARylated nucleosome (Widom 601 DNA), sample contained ADP-BeF3; 15,740 particles, global resolution 6.60 Å, domains fitted as rigid bodies
Conditions: both partners purified

B1: Amplified in Liver Cancer 1 (ALC1), wild type (enzyme)
chain: MERAGATSRGGQAPGFLLRLHTEGRAEAARVQEQDLRQWGLTGIHLRSYQLEGVNWLAQRFHCQNGCILGDEMGLGKTCQTIALFIYLAGRLNDEGPFLILCPLSVLSNWKEEMQRFAPGLSCVTYAGDKEERACLQQDLKQESRFHVLLTTYEICLKDASFLKSFPWSVLVVDEAHRLKNQSSLLHKTLSEFSVVFSLLLTGTPIQNSLQELYSLLSFVEPDLFSKEEVGDFIQRYQDIEKESESASELHKLLQPFLLRRVKAEVATELPKKTEVVIYHGMSALQKKYYKAILMKDLDAFENETAKKVKLQNILSQLRKCVDHPYLFDGVEPEPFEVGDHLTEASGKLHLLDKLLAFLYSGGHRVLLFSQMTQMLDILQDYMDYRGYSYERVDGSVRGEERHLAIKNFGQQPIFVFLLSTRAGGVGMNLTAADTVIFVDSDFNPQNDLQAAARAHRIGQNKSVKVIRLIGRDTVEEIVYRKAASKLQLTNMIIEGGHFTLGAQKPAADADLQLSEILKFGLDKLLASEGSTMDEIDLESILGETKDGQWVSDALPAAEGGSRDQEEGKNHMYLFEGKDYSKEPSKEDRKSFEQLVNLQKTLLEKASQEGRSLRNKGSVLIPGLVEGSTKRKRVLSPEELEDRQKKRQEAAAKRRRLIEEKKRQKEEAEHKKKMAWWESNNYQSFCLPSEESEPEDLENGEESSAELDYQDPDATSLKYVSGDVTHPQAGAEDALIVHCVDDSGHWGRGGLFTALEKRSAEPRKIYELAGKMKDLSLGGVLLFPVDDKESRNKGQDLLALIVAQHRDRSNVLSGIKMAALEEGLKKIFLAAKKKKASVHLPRIGHATKGFNWYGTERLIRKHLAARGIPTYIYYFPRSKSAVLHSQSSSSSSRQLVP
notes: ALC1 (chromatin remodeler), human, UniProt Q86WJ1; wild type; residues 28-874 are modelled in the map; The sample is that of the public dataset EMPIAR-10739; also called WT ALC1
binding result: binds
